{"source": "patent CN115819563A", "target": "猪伪狂犬病毒gE蛋白 (on inactivated pseudorabies virus) (pseudorabies virus (PRV))", "note": "Where “and” joins values, the source holds several entries; their conditions need not be identical. Identical values can stand only once.", "data": [{"binder": "抗猪伪狂犬病毒gE蛋白单克隆抗体 (antibody, V domains shown) VH: EVQLQESAHELVKPGASVKIPCKASGYTFTDYNMHWVKQSLRKSLEWIGDIHPNNGGTIYNQKCMGKATLTVDKSSSTADMELRSLTSDDTAVYSCAREGIHCYGSCYVRYDLDYCRQGTTLTVSS VL: DTVLTQSSASLAVSLCQRATISCKASQSVDHDGDSYMNWSQQRPSQSSTLLIYAASNLESGIPARFSCSGSRTDFTLNIHPVEEEDAATYYCQQT", "values": [{"measurement": "OD450nm", "result": "2.59 OD450nm and 2.57 OD450nm and 2.62 OD450nm"}]}]}
